Measured values reported in patent US20150071856A1, “ANTAGONISTIC PEPTIDES FOR FRIZZLED-1 AND FRIZZLED-2” (Universiteit Maastricht, priority 2013, published 2015).

Columns and labels:
frizzled-2 (rFzd-2) = biological target: T1, frizzled-2 (rFzd-2) (Rattus norvegicus, UniProt Q08464); assay: Activity assay: luciferase reporter in HEK superTOPflash cells transfected with frizzled-2; format: cell-based; details: FIG. 3
T1 construct: expressed in transfected cells; host or cells: HEK293 superTOPflash (transient, Fugene6, pcDNA3.1/hygro)
T1 sequence (Q08464 29-570): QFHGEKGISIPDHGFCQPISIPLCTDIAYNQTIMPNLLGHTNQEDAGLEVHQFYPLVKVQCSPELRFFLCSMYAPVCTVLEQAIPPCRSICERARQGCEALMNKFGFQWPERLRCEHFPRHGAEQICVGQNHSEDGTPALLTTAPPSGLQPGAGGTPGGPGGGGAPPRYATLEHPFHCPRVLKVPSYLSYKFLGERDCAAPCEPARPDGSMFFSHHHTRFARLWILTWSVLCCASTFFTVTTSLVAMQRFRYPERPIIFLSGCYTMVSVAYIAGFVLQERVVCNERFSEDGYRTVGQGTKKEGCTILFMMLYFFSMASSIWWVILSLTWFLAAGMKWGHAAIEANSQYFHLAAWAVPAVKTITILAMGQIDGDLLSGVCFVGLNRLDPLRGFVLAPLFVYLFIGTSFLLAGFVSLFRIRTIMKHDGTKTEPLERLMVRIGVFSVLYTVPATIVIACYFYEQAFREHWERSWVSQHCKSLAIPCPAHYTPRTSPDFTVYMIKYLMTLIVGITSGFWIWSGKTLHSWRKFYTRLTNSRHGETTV
Method: Human embryonic kidney (HEK) cells were used for screening. These cells have a luciferase construct stably transfected into the genome (see FIG. 2A), such that when the frizzled receptor is activated and β-catenin is increased, the luciferase is activated by transcription and light can be measured.
The peptides were tested by transfecting the frizzled-1 or the frizzled-2 receptor and addition of UM206(S-S) to the cell culture. For testing antagonistic activity, UM206 was added and the natural ligand Wnt3a was added, which is a natural stimulus for the canonical pathway.
Day 2: Transfection 12-Well Plates • heat Fugene6 and DNA 15 minutes at RT • 2 ml serum-free medium in tube • add 3 μl fugene • add 2 μg DNA • incubate 30 minutes at RT • wash with PBS • add 50 μl transfectiemix • add 1 ml antibiotica-free medium
Day 3: Add Conditioned Medium or UM206
Day 4: Luciferase Activity Measurements • remove medium • wash with PBS • add 500 μl ⅕ lysisbuffer • shake for 60 minutes • centrifuge in tube • 20 μl lysaat and 50 μl luciferase in new tube for measurement • vortex • measure
Three areas of high homology that contained two cysteines are underlined (UM207), (UM208) and (UM206). In FIGS. 9B through 9D, the inhibitory effect of these three peptides on Wnt3a-induced luciferase activity in HEK293-superTOPflash is shown. […]

Fzd-1 and -2 = assay: Binding of rhodamine-labeled UM206 to frozen sections of mouse kidney and small intestine and its blocking; details: UM206-rhodamine 1.10^−8 M; UM207 1.10^−7 M, Wnt3a 1.10^−8 M
Method: Specificity of the binding site was confirmed by prior incubation of the tissue sections with UM207 (1.10^−7 M) or recombinant Wnt3a (1.10^−8 M).
One-half of the hearts of the mice was embedded in paraffin and cut in 4 μm sections. The paraffin sections were rehydrated and washed in PBS. One section was stained with AZAN, allowing an accurate determination of the infarct size. To visualize the myofibroblasts in the infarct area, the sections were incubated with an antibody directed against α-smooth muscle actin (Sigma-Aldrich), followed by incubation with the peroxidase-conjugated secondary antibody (Vector laboratories). Nuclei were visualized by hematoxylin. Photos were taken with a Leica (CTR500, 63×/0.85) camera and analyzed with the Quantimet program (QWin/QGo). An examiner blinded to the groups of the animals obtained all measurements. For the experiments with Rhodamine-labeled UM206, frozen sections (4 μm) of mouse kidney and small intestine were used.

canonical Wnt signaling = assay: Activity assay (Example 1): TOPflash luciferase reporter in HEK (HEK293-superTOPflash) cells, receptor not specified; format: cell-based, human; details: no Fzd transfection

B1: Wnt3a: natural ligand of frizzled, natural stimulus for the canonical pathway; recombinant or conditioned medium (protein)
chain: SYPIWWSLAVGPQYSSLGSQPILCASIPGLVPKQLRFCRNYVEIMPSVAEGIKIGIQECQHQFRGRRWNCTTVHDSLAIFGPVLDKATRESAFVHAIASAGVAFAVTRSCAEGTAAICGCSSRHQGSPGKGWKWGGCSEDIEFGGMVSREFADARENRPDARSAMNRHNNEAGRQAIASHMHLKCKCHGLSGSCEVKTCWWSQPDFRAIGDFLKDKYDSASEMVVEKHRESRGWVETLRPRYTYFKVPTERDLVYYEASPNFCEPNPETGSFGTRDRTCNVSSHGIDGCDLLCCGRGHNARAERRREKCRCVFHWCCYVSCQECTRVYDVHTCK
Question: For B1, which “concentration-dependent increase of the luciferase activity, in combination with frizzled-2” value (frizzled-2 (rFzd-2)) is on record?
Answer: The value was “twelve-fold”.

Question: And the “blocking of UM206-rhodamine binding by prior incubation” value (Fzd-1 and -2)?
Answer: The value was “completely abolished the binding of UM206-rhodamine”.

Question: And the “increase of luciferase activity” value (canonical Wnt signaling)?
Answer: Its value is ~450 fold.
